# B1: HDAC6 (parent)
# chain: YVHHQALLDVKNIAHQNKFGEDMP
# B2: ZNF449 (parent)
# chain: EPHKCPECGKRFLRSSDLYRHQRL
# Variants of: B1
# Test: protein stability index of a GFP-peptide fusion (GPS, HEK-293T) (PSI 1-6); higher = more stable
# Settings: c terminus: a fixed tail appended
# 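Further: lentivirally expressed fusions sorted by FACS into six bins by GFP to DsRed ratio, PSI derived from sequencing read proportions per bin multiplied by bin number.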
row,Variant,protein stability index
1,YVHHQALLDVPNIAHQNKFGEDMP,1.92
2,YVHHQALLDVKNKAHQNKFGEDMP,2
3,YVHHQARLDVKNIAHQNKFGEDMP,1.8
4,YVHHQAYLDVKNIAHQNKFGEDMP,2.53
5,YVHHQALLDVKNIAYQNKFGEDMP,1.43
6,YVHHQALLDVKNIAHQRKFGEDMP,1.89
7,YVHHQALLDVKNIMHQNKFGEDMP,1.99
8,NVHHQALLDVKNIAHQNKFGEDMP,4.39
9,YVHHQALQDVKNIAHQNKFGEDMP,2.4
10,YVHHQALCDVKNIAHQNKFGEDMP,2.43
11,YVHHQALLDVKNIAHRNKFGEDMP,1.8
12,YVHDQALLDVKNIAHQNKFGEDMP,2.64
13,YVHCQALLDVKNIAHQNKFGEDMP,1.7
14,YVHHEALLDVKNIAHQNKFGEDMP,2.16

# Variants of: B2
# Test: as above
# Settings: c terminus: a fixed tail appended
row,Variant,protein stability index
1,EPHKCPECGKRFLRSSDNYRHQRL,2.67
2,EPHKCPECGKRFLRSSDIYRHQRL,2.52
3,EPHKCPECGKRFLRSSDYYRHQRL,2.97
4,EPHKCPECEKRFLRSSDLYRHQRL,3.15
5,EPHKCPECDKRFLRSSDLYRHQRL,2.99
6,EPHKCPECTKRFLRSSDLYRHQRL,2.32
7,EPHKCPECGKRRLRSSDLYRHQRL,2.15
8,EPHKCPECGKRYLRSSDLYRHQRL,2.72
9,EPHKCPECGKRTLRSSDLYRHQRL,2.32
10,EPHKCPECGKRNLRSSDLYRHQRL,2.06
11,EPHKCPECGKRHLRSSDLYRHQRL,3.73
12,EPHKCPECGKYFLRSSDLYRHQRL,4.39
13,EPHKCPECGKTFLRSSDLYRHQRL,5.01
14,EPHKCPECGKMFLRSSDLYRHQRL,4.26
15,EPHKCNECGKRFLRSSDLYRHQRL,4.17
16,EPHKCGECGKRFLRSSDLYRHQRL,3.5
17,EPHKCPECGKRFLRSSDLYYHQRL,3.32
18,EPHKCPECGKRFLRSSDLYQHQRL,4.29
19,EPHKCPECGKRFLRSSDLYFHQRL,3.42
20,EPHKCPECGKRFLRSSDLYWHQRL,3.6
21,EPHKCPECGKRFLRSSDLMRHQRL,3.65
22,EPHKCPECGKRFLRSSDLCRHQRL,4.7
23,EPHKCPECGKRFLRSSDLYRVQRL,2.11
24,EPHKCPECGKRFLRSSDLYRLQRL,2.4
25,EPHKCPECGKRFLRSSDLYRKQRL,2.67
26,EPHKCPECGKRFLRSSDLYRDQRL,2.79
27,EPHKCPECGKRFLFSSDLYRHQRL,3.76

row,Variant,protein stability index
1,EPHKCPECGKRFLMSSDLYRHQRL,3.61
2,EPHKCPECGGRFLRSSDLYRHQRL,2.11
3,EPHKCPECGRRFLRSSDLYRHQRL,3.55
4,EPHKCPECGYRFLRSSDLYRHQRL,2.5
5,EPVKCPECGKRFLRSSDLYRHQRL,3.72
6,EPQKCPECGKRFLRSSDLYRHQRL,3.31
7,EPEKCPECGKRFLRSSDLYRHQRL,2.99
8,EPPKCPECGKRFLRSSDLYRHQRL,3.33
9,EPTKCPECGKRFLRSSDLYRHQRL,3.9
10,EPHKLPECGKRFLRSSDLYRHQRL,3.3
11,EPHKNPECGKRFLRSSDLYRHQRL,3.41
12,EPHKDPECGKRFLRSSDLYRHQRL,3.69
13,EPHKCPECGKRFLRSRDLYRHQRL,3.52
14,EPHKCPECGKRFLRSYDLYRHQRL,3.05
15,EPHKCPECGKRFLRSGDLYRHQRL,3.54
16,EPHKCPECGKRFLRSSDLYRHPRL,2.4
17,EPHKCPECGKRFLRSSDLYRHMRL,3.83
18,EPHKCPECGKRFLRSSDLYRHRRL,3.84
19,EPHKCPECGKRFLRSSDLYRHFRL,3.14
20,EPHKCPECGKRFLRSSDLYRHIRL,2.91
21,EPHRCPECGKRFLRSSDLYRHQRL,3.71
22,EPHKCPEHGKRFLRSSDLYRHQRL,3.26
23,EPHKCPECGKRFLRTSDLYRHQRL,3.9
24,EPHKCPECGKRFLRWSDLYRHQRL,3.52
25,EPHKCPECGKRFLRNSDLYRHQRL,3.51
26,EPHKCPECGKRFLRSSNLYRHQRL,2.22
27,EPHKCPECGKRFLRSSMLYRHQRL,2.35

row,Variant,protein stability index
1,EGHKCPECGKRFLRSSDLYRHQRL,3.81
2,EEHKCPECGKRFLRSSDLYRHQRL,3.42
3,EIHKCPECGKRFLRSSDLYRHQRL,3.18
4,ENHKCPECGKRFLRSSDLYRHQRL,3.37
5,ERHKCPECGKRFLRSSDLYRHQRL,3.54
6,EPHKCPECGKRFARSSDLYRHQRL,4
7,EPHKCPECGKRFPRSSDLYRHQRL,3.74
8,EPHKCPECGKRFFRSSDLYRHQRL,3.35
9,EPHKCPECGKRFSRSSDLYRHQRL,3.92
10,EPHKCPECGKRFMRSSDLYRHQRL,4.48
11,EPHKCPECGKRFKRSSDLYRHQRL,4.5
12,EPHKCPECGKRFTRSSDLYRHQRL,4.46
13,EPHKCPECGKRFLRSSDLYRHQVL,3.16
14,EPHKCPECGKRFLRSSDLYRHQTL,4.01
15,EPHKCPECGKRFLRSSDLYRHQYL,3.75
16,EPHKCPECGKRFLRSSDLYRHQHL,3.84
17,VPHKCPECGKRFLRSSDLYRHQRL,2.67
18,DPHKCPECGKRFLRSSDLYRHQRL,4.06
19,RPHKCPECGKRFLRSSDLYRHQRL,3.37
20,IPHKCPECGKRFLRSSDLYRHQRL,2.6
21,WPHKCPECGKRFLRSSDLYRHQRL,3.2
22,EPHKCPECGKRFLRSSDLYRHQRT,4.06
23,EPHKCPECGKRFLRSSDLYRHQRE,4.95
24,EPHKCPCCGKRFLRSSDLYRHQRL,4.37
25,EPHKCPHCGKRFLRSSDLYRHQRL,3.65
26,EPHKCPRCGKRFLRSSDLYRHQRL,3.17

# Reference: the supplement of paper PMC10567573
